Measured values reported in the supplement of paper PMC10724198.
± gives the standard deviation of the averaged measurements.

These sequences were tested on Saccharomyces cerevisiae (assay: protein stability index of tFT-peptide fusion (C-terminal peptide) (PSI (0-1 scale)); higher = more stable (slower turnover)). Details: genetic background: wild type; temperature: 30 C.
Description: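 MPS profiling in S. cerevisiae of the tFT-X12 degron library: putative degron peptides plus stable controls, 12 aa, fused to the C-terminus of a sfGFP-mCherry timer. Cells are FACS-sorted into 8 mCherry/sfGFP bins and deep-sequenced. PSI runs from 0 (unstable) to 1 (stable). Backgrounds are wild type, das1Δ and doa10Δ at 30 °C, and wild type, das1Δ, cdc34-1 and cdc53-1 at 37 °C; 2-3 technical replicates each.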
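Also: PSI is a weighted mean of sequencing reads over stability bins, variants kept only with over 10 reads, mCherry proximal and sfGFP distal, peptide attached via GGGS linker.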

Going from GAVGGWGWVSFV to GGCGFVWWRLLG, the protein stability index falls from 0.397 ± 0.0083 to 0.144 ± 0.033.

First: GGGRGGRWGRLC
Second: GLLMCNPLLHSI
The protein stability index of the first is lower: 0.214 ± 0.024 for the first, 0.614 ± 0.011 for the second.

First: IMWAFFMFCSFL
Second: LSLCFGPFFYFP
The protein stability index of the first is lower: 0.367 ± 0.026 for the first, 0.6242 ± 0.0027 for the second.

First: PPPPPSARSPFR
Second: RVIESRWFNRLC
The protein stability index of the first is higher: 0.602 ± 0.0097 for the first, 0.121 ± 0.019 for the second.

Work on TFCVLLQFCVLV yielded a protein stability index of 0.315 ± 0.012.

Same assay, conditions: genetic background: wild type; temperature: 37 C

First: ACCLLFSFAFTV
Second: AFFALGSFFFLL
The protein stability index of the first is lower: 0.4184 ± 0.0027 for the first, 0.519 ± 0.034 for the second.

Compared with AFRCVVLCWFLK, AFVSVHRLRLAS is lower in protein stability index: 0.413 ± 0.011 for the first, 0.374 ± 0.018 for the second.

Going from AGLAPCFLLFVC to AGMIKLRKKKVL, the protein stability index rises from 0.0938 ± 0.026 to 0.452 ± 0.0093.

Going from AGSPPSRPPWLP to AGVRLIFLFWGF, the protein stability index falls from 0.719 ± 0.042 to 0.621 ± 0.036.

Compared with AHSFKCVGVAVR, AIREVQYSFFPS is higher in protein stability index: 0.544 ± 0.0072 for the first, 0.723 ± 0.016 for the second.

Going from ALERCFIRRVTV to ALVYVPACRLVV, the protein stability index falls from 0.532 ± 0.01 to 0.481 ± 0.018.

Going from APCRVPVLGLVF to APLPPVCPSPSL, the protein stability index rises from 0.344 ± 0.025 to 0.72 ± 0.01.

First: ARRRYEVLAVLV
Second: ASTGPLAAIRVY
The protein stability index of the first is lower: 0.149 ± 0.021 for the first, 0.588 ± 0.017 for the second.

First: AVCVGILIWATV
Second: AVLVSGMVVWLV
The protein stability index of the first is lower: 0.264 ± 0.017 for the first, 0.563 ± 0.01 for the second.

Going from AVSFTLVLCSCF to AVVLLFIPRKLL, the protein stability index falls from 0.444 ± 0.0074 to 0.293 ± 0.015.

Going from AVWVAVEVEAGR to AVYEGLLIRCLI, the protein stability index falls from 0.53 ± 0.018 to 0.392 ± 0.0068.

Going from AYFLKRSSILVR to CAIHIKIQMSVE, the protein stability index falls from 0.395 ± 0.011 to 0.128 ± 0.028.

First: CALCIGTYIRVV
Second: CCLFFLVVFVGW
The protein stability index of the first is higher: 0.501 ± 0.031 for the first, 0.274 ± 0.0075 for the second.

First: CCNVLFRVCLFL
Second: CFGVVVLGLSLD
The protein stability index of the first is lower: 0.4334 ± 0.0041 for the first, 0.531 ± 0.021 for the second.

First: CFLPFFIIFIFV
Second: CFVFIGVGVLLG
The protein stability index of the first is lower: 0.301 ± 0.015 for the first, 0.382 ± 0.014 for the second.

Going from CIEIDHVIVAIC to CKFLYMALLFFW, the protein stability index falls from 0.492 ± 0.018 to 0.392 ± 0.00069.

First: CLFLVFCFCVCS
Second: CLGFWVCCYCLV
The protein stability index of the first is higher: 0.531 ± 0.032 for the first, 0.48 ± 0.017 for the second.

Going from CLHWFMVLFRVL to CLLLVISSLCSG, the protein stability index rises from 0.203 ± 0.015 to 0.4964 ± 0.0038.

First: CLVLCLSIPSPL
Second: CLVWLVRIIVLD
The protein stability index of the first is higher: 0.606 ± 0.012 for the first, 0.32 ± 0.025 for the second.

Compared with CPFFFFSLIFLF, CRLFPFPLLAQL is higher in protein stability index: 0.284 ± 0.011 for the first, 0.484 ± 0.023 for the second.

Compared with CSAARKDGLAPL, CSLPVLFLPYYL is lower in protein stability index: 0.719 ± 0.032 for the first, 0.572 ± 0.02 for the second.

Going from CSPVNGSAVWSI to CSSFFLLLFFLF, the protein stability index falls from 0.7093 ± 0.0046 to 0.407 ± 0.0056.

Going from CSWMRSRMWVGG to CTWGRYGGIWLR, the protein stability index falls from 0.346 ± 0.0053 to 0.11 ± 0.016.

CVFCLTVFVRFL and CVFVWFWCMTWV are within error of each other in protein stability index: 0.2572 ± 0.0012 for the first, 0.345 ± 0.13 for the second.

Going from CVLFLGQILCVV to CYSRRGCIYFFF, the protein stability index falls from 0.339 ± 0.026 to 0.157 ± 0.0033.

DHSIYYGVAKVF and DKKNCIIIYYKQ are within error of each other in protein stability index: 0.09554 ± 0.00036 for the first, 0.106 ± 0.011 for the second.

Going from DLDLLTKFSKEC to DNTVWLRLVTSC, the protein stability index falls from 0.656 ± 0.018 to 0.0768 ± 0.016.

First: DRHCLVSLSPDG
Second: DRLAVLVLLRVY
The protein stability index of the first is higher: 0.678 ± 0.033 for the first, 0.0571 ± 0.016 for the second.

Compared with DRRFLVMISVSL, DRSPLPAIFVAQ is higher in protein stability index: 0.414 ± 0.0086 for the first, 0.733 ± 0.016 for the second.

Going from DTAFLLVVVVGR to DYIFVYAVMFMR, the protein stability index falls from 0.411 ± 0.029 to 0.308 ± 0.02.

Compared with EFCITAFVSVLT, EGLRVSVCAWVM is lower in protein stability index: 0.462 ± 0.0064 for the first, 0.421 ± 0.0079 for the second.

EHIRWLLPKHCL and EIKTEIGKKKKN are within error of each other in protein stability index: 0.613 ± 0.063 for the first, 0.608 ± 0.067 for the second.

Compared with EINRKKRKTKIN, ERGSLPRIHHLI is lower in protein stability index: 0.465 ± 0.044 for the first, 0.31 ± 0.02 for the second.

Going from ERLVFKRWYLCL to ESCVRSRRVLLC, the protein stability index rises from 0.136 ± 0.0091 to 0.196 ± 0.0075.

Compared with FCLRQPMLRFFI, FLFVSVFHPALL is higher in protein stability index: 0.54348 ± 9.7e-05 for the first, 0.601 ± 0.013 for the second.

First: GAVGGWGWVSFV
Second: GGCGFVWWRLLG
The protein stability index of the first is higher: 0.595 ± 0.092 for the first, 0.199 ± 0.022 for the second.

Compared with GGGRGGRWGRLC, GLLMCNPLLHSI is higher in protein stability index: 0.483 ± 0.012 for the first, 0.704 ± 0.016 for the second.

First: IMWAFFMFCSFL
Second: LSLCFGPFFYFP
The protein stability index of the first is lower: 0.481 ± 0.044 for the first, 0.704 ± 0.046 for the second.

Compared with PPPPPSARSPFR, RVIESRWFNRLC is lower in protein stability index: 0.695 ± 0.004 for the first, 0.229 ± 0.018 for the second.

In the case of TFCVLLQFCVLV, the protein stability index is reported as 0.411 ± 0.0012.

Test system: Saccharomyces cerevisiae
Experiment: as above
Details: genetic background: wild type; temperature: 30 C
Remark: another data set of the same source

First: ACCLLFSFAFTV
Second: AFFALGSFFFLL
The protein stability index of the first is higher: 0.301 ± 0.028 for the first, 0.0874 ± 0.015 for the second.

AFRCVVLCWFLK and AFVSVHRLRLAS are within error of each other in protein stability index: 0.415 ± 0.023 for the first, 0.4053 ± 0.0023 for the second.

Going from AGLAPCFLLFVC to AGMIKLRKKKVL, the protein stability index rises from 0.133 ± 0.019 to 0.417 ± 0.042.

AGSPPSRPPWLP and AGVRLIFLFWGF are within error of each other in protein stability index: 0.506 ± 0.018 for the first, 0.4945 ± 0.0016 for the second.

Going from AHSFKCVGVAVR to AIREVQYSFFPS, the protein stability index rises from 0.3246 ± 0.0014 to 0.715 ± 0.021.

Compared with ALERCFIRRVTV, ALVYVPACRLVV is lower in protein stability index: 0.477 ± 0.069 for the first, 0.4017 ± 0.0028 for the second.

First: APCRVPVLGLVF
Second: ARRRYEVLAVLV
The protein stability index of the first is higher: 0.327 ± 0.034 for the first, 0.227 ± 0.0072 for the second.

Going from ASTGPLAAIRVY to AVCVGILIWATV, the protein stability index falls from 0.495 ± 0.013 to 0.314 ± 0.08.

AVLVSGMVVWLV and AVSFTLVLCSCF are within error of each other in protein stability index: 0.436 ± 0.032 for the first, 0.449 ± 0.023 for the second.

Compared with AVVLLFIPRKLL, AVWVAVEVEAGR is higher in protein stability index: 0.245 ± 0.079 for the first, 0.436 ± 0.026 for the second.

AVYEGLLIRCLI and AYFLKRSSILVR are within error of each other in protein stability index: 0.337 ± 0.011 for the first, 0.352 ± 0.017 for the second.

Compared with CAIHIKIQMSVE, CALCIGTYIRVV is higher in protein stability index: 0.0995 ± 0.011 for the first, 0.451 ± 0.029 for the second.

Compared with CCLFFLVVFVGW, CCNVLFRVCLFL is higher in protein stability index: 0.255 ± 0.021 for the first, 0.353 ± 0.048 for the second.

Compared with CFGVVVLGLSLD, CFLPFFIIFIFV is lower in protein stability index: 0.491 ± 0.024 for the first, 0.29 ± 0.0067 for the second.

Going from CFVFIGVGVLLG to CIEIDHVIVAIC, the protein stability index rises from 0.376 ± 0.037 to 0.446 ± 0.021.

First: CKFLYMALLFFW
Second: CLFLVFCFCVCS
The protein stability index of the first is lower: 0.299 ± 0.061 for the first, 0.498 ± 0.048 for the second.

Going from CLGFWVCCYCLV to CLHWFMVLFRVL, the protein stability index falls from 0.396 ± 0.029 to 0.119 ± 0.022.

Going from CLLLVISSLCSG to CLVLCLSIPSPL, the protein stability index rises from 0.403 ± 0.011 to 0.55 ± 0.08.

CLVWLVRIIVLD and CPFFFFSLIFLF are the same in protein stability index: 0.298 ± 0.048 for the first, 0.298 ± 0.017 for the second.

Compared with CRLFPFPLLAQL, CSAARKDGLAPL is higher in protein stability index: 0.488 ± 0.084 for the first, 0.701 ± 0.024 for the second.

CSLPVLFLPYYL and CSPVNGSAVWSI are within error of each other in protein stability index: 0.486 ± 0.14 for the first, 0.699 ± 0.076 for the second.

First: CSSFFLLLFFLF
Second: CSWMRSRMWVGG
The protein stability index of the first is lower: 0.311 ± 0.019 for the first, 0.3994 ± 0.0039 for the second.

CTWGRYGGIWLR and CVFCLTVFVRFL are within error of each other in protein stability index: 0.254 ± 0.058 for the first, 0.243 ± 0.011 for the second.

First: CVFVWFWCMTWV
Second: CVLFLGQILCVV
The protein stability index of the first is lower: 0.168 ± 0.0053 for the first, 0.332 ± 0.0076 for the second.

CYSRRGCIYFFF and DHSIYYGVAKVF are within error of each other in protein stability index: 0.192 ± 0.037 for the first, 0.163 ± 0.055 for the second.

Compared with DKKNCIIIYYKQ, DLDLLTKFSKEC is higher in protein stability index: 0.147 ± 0.062 for the first, 0.466 ± 0.03 for the second.

Going from DRHCLVSLSPDG to DRLAVLVLLRVY, the protein stability index falls from 0.5 ± 0.1 to 0.109 ± 0.017.

Going from DRRFLVMISVSL to DRSPLPAIFVAQ, the protein stability index rises from 0.398 ± 0.039 to 0.681 ± 0.047.

Going from DTAFLLVVVVGR to DYIFVYAVMFMR, the protein stability index falls from 0.373 ± 0.042 to 0.265 ± 0.045.

Going from EFCITAFVSVLT to EGLRVSVCAWVM, the protein stability index falls from 0.435 ± 0.012 to 0.339 ± 0.023.

Going from EHIRWLLPKHCL to EIKTEIGKKKKN, the protein stability index rises from 0.454 ± 0.041 to 0.503 ± 0.0079.

First: EINRKKRKTKIN
Second: ERGSLPRIHHLI
The protein stability index of the first is higher: 0.436 ± 0.04 for the first, 0.257 ± 0.0082 for the second.

Compared with ERLVFKRWYLCL, ESCVRSRRVLLC is higher in protein stability index: 0.123 ± 0.018 for the first, 0.221 ± 0.026 for the second.

With YYSTPLARSRSP the protein stability index was 0.831 ± 0.21.
